Test results published in the nanobody polyreactivity screen of Harvey et al. (2022).

assay: yeast display, Sf9 membrane polyspecificity reagent, FACS + sequencing; frameworks hold sequencing errors
Summary of the method: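 Galactose-induced (36–48 hours) yeast carrying a synthetic nanobody display library were exposed to 10% biotinylated, detergent-solubilized Sf9 membrane reagent at 4 °C for 1 hour. FACS followed streptavidin microbead enrichment, using low and high (top ~1%) gates for expression (anti-HA) and reagent binding (streptavidin). Colony PCR, MiSeq 2 × 250 sequencing and CDR-length filtering followed. Labels for polyreactivity reflect the gate of origin.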

Row | Sequence | polyreactivity (PSR sort gate)
1 | QDQLVESGGGLVQAGGSLRLSCAASGSTFPAYAMGWYRQAPGKERELVAAISVRRGRTYYADSVKGRFTSSRDNAKNTVYLQMNSLKPDDTAVYYCAAYLRPGGNYYWGQGTQVTVSS | high polyreactivity
2 | QDQLVESGGGLVQAGGSLRLSCAASGSTFPDYAAMGWYRPAPGTERELVAAISKRGGSTYYADSVKGRFTISRDNAKNTVYYQMNSLKPEDTAVYSCNVEYYILTAGRYARAYDYGGQGTQVTVSS | high polyreactivity
3 | QDQLVESGGGLVQAGGSLRLSCAASGSTFPRYAMGWSRQAPGKERELVAAISSSGRTYYADSVKGRFTISRDNEKNTVYLQMNSLKPEDTAVYYCNAYPVFRSYDYWGQGTQVTVSS | high polyreactivity
4 | QDQLVESGGGLVQAGGSLRLSCAASGSTFQTYAMGWYRQAPGKEREVVAAISFNGGSTYYADSVKGRFTISRDNAKNTVYLQMNSLKPEDTAVYSCAVEYTWASALYDGRHDYWGQGTQVTVSS | high polyreactivity
5 | QDQLVESGGGLVQAGGSLRLSCAASGSTFRRYDMGWYRQAPGKERELVAAISHRTGRTSYADSVKGRFTISRDNAKNTVYLQMNSLKTEDTAVYYCAADHTYYRQGYDYWGQGTQVTVSS | high polyreactivity
6 | QDQLVESGGGLVQAGGSLRLSCAASGSTFSWYAMGWYRQAPGKERELVAAINNRSGSTSYADSVKGRFTISRDNAKNTVYLQMNSLKPEDTAVYYCAAEGTDGLYDWEYDYWGQGTQVTVSS | high polyreactivity
7 | QDQLVESGGGLVQAGGSLRLSCAASGSTFSYNAMGWYRQAPGKERELVAAIRWSGGSTYADSVKGRFTISRDNAKNTVYLQMNSLNPEDTAVYYCAARNFGYPELRYYYWGQGTQVTVSS | high polyreactivity
8 | QDQLVESGGGLVQAGGSLRLSCAASGSTFTDYDMGWYRQAPGKERELVAAITSGGSTNYADSVKGRFTISRDNAKNTVYLQMNSLKPEDTAVYYCAAELRYYLYDVVYIVTYDYWGQGTQVTVSS | low polyreactivity
9 | QDQLVESGGGLVQAGGSLRLSCAASGSTFTKYAMGWYRQAPGKERELVAAIISYRVGSTYYADSVKGRFTISRDNAKINVYLVMKSLIPEDTAAFYCAAVWKPPGFSTMYYWGQGTEVTVSS | high polyreactivity
10 | QDQLVESGGGLVQAGGSLRLSCAASGSTFVDNAIGWYRQAPGKERELVAAISRGGSTHYADSVKGRFTISRDNAKNTVYLQMNSLKPEDTAVYYCAAVIDSREEYWGQGTQVTVSS | high polyreactivity
11 | QDQLVESGGGLVQAGGSLRLSCAASGSTFVGNAMGWYRQAPGKERELVAAISRTGGSTYYADSVKGRFTISRDNAKNTVYLQMNSLKPEDTAVYYCAARRYDIRYYYVTYRPPKMYYWGQGTQVTVSS | high polyreactivity
12 | QDQLVESGGGLVQAGGSLRLSCAASGSTFYTYAMGWYRQEPGKERELVAAISYRGGSSYYAVSVKGRFTISRDNAKYTVYLQMNSLKPEDTAVYYCAAKVSRAGDFWGQGTQVTVSS | low polyreactivity
13 | QDQLVESGGGLVQAGGSLRLSCAASGSTFYWYTMGWYRQAPGKESEMVATITSVGRTNYADSVKGRFTISRDNAKNTVYLQMNSLKPEDTAVYYCAASKARWARGGSKYYYWGQGTQVTVSS | high polyreactivity
14 | QDQLVESGGGLVQAGGSLRLSCAASGSTIDDYARGWYRQAPGKERELVAAITWTSTDTYADSVKGRFTISRDNAKNTVYLQMNCLKPEDTAVYYCATDFIWDTAVTGGPNDWEYDYWGQGTQVTVSS | low polyreactivity
15 | QDQLVESGGGLVQAGGSLRLSCAASGSTIRVKAMGWYRLAPGKERELVAGISKSGTSTYYADSVKGRFTISRDNAKNTVYLQMNSLKPEDTAAYYCATHLGRRTSGSRFGYWGQGTQVTVSS | high polyreactivity
16 | QDQLVESGGGLVQAGGSLRLSCAASGSTLARYGMGWYRQAPGKERELVAAISYSGGRTYYADSVKGRFTISRDNAKNTVYLQMNSLKPEDTAVYYCAARRVYVPRGPIEFYYWGQGTQVTVSS | high polyreactivity
17 | QDQLVESGGGLVQAGGSLRLSCAASGSTLFIYARGWYRQAPGKEREFVAGISYSGGSTYYADSVKGRFTISRDNAKNTVYLQMNSLKPEDTAVYYCAAATVYLSWYYWGQGTQVTVSS | high polyreactivity
18 | QDQLVESGGGLVQAGGSLRLSCAASGSTLYAYAMGWYRQAPGKERELVAAISFSTTSTYYADSVKGRFTISRDYEKNTVYLQMNSLKPEDTAVYYCAAEYWYYWEYEYWGLGTQVTVSS | high polyreactivity
19 | QDQLVESGGGLVQAGGSLRLSCAASGYIFLRNAMGWYRQAPGKERELVATISRTGRTNYADSVKGRFTISRDNAKNTVFLHMNSLKPEDTAVYYCAAASVFGRIRLWYDYWGQGTQVTVSS | high polyreactivity
20 | QDQLVESGGGLVQAGGSLRLSCAASGYTFRYAMGWNIQAPGKERELVAGITSSGGSTYYADSVKGRFTISRDNAKNTVYLQMNSLKPEDTAVYYCNADFFVWLYPHYLIFDYWGQGTQVTVSS | low polyreactivity
21 | QDQLVESGGGLVQAGGSLRLSCAASVSTFYVYAMGWYRQAPGKERELVAAITRGGSTYYADSVKGRFTISRDNAKNTVYLQMNSLKPEDTAGYYCAADYGSRWGYDYCGQGTQVTVSS | low polyreactivity
22 | QDQLVESGGGLVQAGGSLRLSCAAYGIIFWDNAMGWYRQAPGKERELVASINYSGGSTYYADSVKGRFTISRDNAKNTVYLQMYSLKPEDTAVYYCAARTVTLDDWDYAYDYWGQGTQVTVSS | low polyreactivity

Row | Sequence | polyreactivity (PSR sort gate)
23 | QDQLVESGGGLVQAGGSLRLSCAPSGFIFDDNAMGWYRQAPGKERELVAAITSGGGSTYYADSVKGRFTISRDNAKNTFYLQMNSLKPEDTAVYYCNKVYGWYSFKWGPTASDYWGQGTQVTVSS | low polyreactivity
24 | QDQLVESGGGLVQAGGSLRLSCAPSGSIFYRNAMGWYRQAPGKERELVAAIRYSGDNTYYADSVKGRFTISRDNSKNTVYLQMNSLKPEDTAVYYCAADFPDYEYWGQGTQVTVSS | high polyreactivity
25 | QDQLVESGGGLVQAGGSLRLSCASSGFTFNGYAMGWYRQAPGKERELVAAINISGGSTYYADSVKGRFTISRDNAKNTVYLQMNSLNPEDTAVYYCAARLWGKRYSYRYGYWGQGTQVTVSS | high polyreactivity
26 | QDQLVESGGGLVQAGGSLSLSCAASGRTFYWYVMGWYRQAPGKERELVAAITQTGSSSYYADSVKGRFTISRDNAKNTVYLQMNSLKPEDTAVYYCADRLSRNHYEVDYWGQGTQVTVSS | low polyreactivity
27 | QDQLVESGGGLVQAGGSLSLSCAASGSIFGKYTMGWYRQAPGKERELVAGITYRAGSTYYADSVKGRFTISRDNAKITVYLQMNSLKPEDTAVYYCAARFYFRWYYYGSYANYWGQGTQVTVSS | high polyreactivity
28 | QDQLVESGGGLVQAGGSRRLSCAASGSIFIYAMGWYRQAPGNERELVATIDSGGSTNYADSVKGRFTISRDNAKNTFYLQMNSLKPEDTAVYYFAARPYTTYHYVDDYWGQGTQVTVSS | high polyreactivity
29 | QDQLVESGGGLVQAGGTLRLSCDASGSTFFRNAMGWYRQPPGKEREMVADISASGGSTYYADSVKGRFTISRDNAKNTVYLQMNSLKPEDNADYYCNALYIYFYNYLTMDYWGQGSQVTVSS | low polyreactivity
30 | QDQLVESGGGLVQAGVSLRLSCAASGRTIRHNPMGWYIQAPGKERELVATINRGGNTYYADSVKGRFTISRDNAKNTVYLQMISLKPEDTAVYYCAARRSFLFDDGNYWGQVTQVTVSS | low polyreactivity
31 | QDQLVESGGGLVQAGVSLRLSCPASGNIFNGKAMGWYRQAPGKERELVAAISSGGGSTYYADSVKGRFTISRDNAMNTVYLQMNSLKPEDTAVYYCAASRVRYSYGYPYYYWGQGTQVTVSS | high polyreactivity
32 | QDQLVESGGGLVQARGSLRLSCAASGYIFPFYAMGWYRQAPGKESELVASISSSSGRTNYADSVKGRFTISRDNAMNTVYLQMNSLKPEDTAVYYCSAAYLRYVSTQYHYDYWGQGTQVTVSS | low polyreactivity
33 | QDQLVESGGGLVQEGGSLRLSCAASGLIFTYYAMGWYRQAPGKERELVAAINYSGGSTYYADSVKGRFTISRDNAKNTVYLQMNSLKPEDTAVYYCDARRVTQTEGPMGYWGQGTQVTVSS | low polyreactivity
34 | QDQLVESGGGLVQEGGSLRLSCAASGSIFARNAMGWYRQAPGKERELVAAISRSGGSTYYADSVKGRFTISRDNAKNTVYVQMNSMKPEDTAVYFCNAVQRYSQGDYWGHGTQVTVSS | high polyreactivity
35 | QDQLVESGGGLVQPGGSLRLSCAASGRTFRFNAMGWYRQAPGKERELVAVITSNDGSTYYADSVKGRFTISRDNAKNTVYLQMNSLKPEDTAVYYCAADWSYAWSWFYYWGQGTQVTVSS | low polyreactivity
36 | QDQLVESGGGLVQSGGSLRLSCAASGFIFPHYAMGWYRPAPGKERELVAAISKSGDSTYYADSVKGRFSISRDNAKNTVYLQMNSLKPEDTAVYYCARRGRSLLWKYDYWRQGTQVTVSS | low polyreactivity
37 | QDQLVESGGVLVQAGGSLRLSCAASGSIFFRNAMGWYRQAPGKERELVAGIRWSGGSTYYADSVKARFTISRDNAKNTVYLQMNSLKPEDSAVYYCAASRYRPARVQYSYDYWGQGTQVTVSS | high polyreactivity
38 | QDQLVESGRGLVQAGGSLRLSCAASGFIFYNYAMGWYIQAPGKERELVAAISASGGRTYFADSVQGRFTISRDNAKNTVYLQMNRLKPEDTAFYYCNARVNYKGYDYWGQGTQVTVSS | high polyreactivity
39 | QDQLVESGRGLVQAGGSLRLSCAASGSINATNAMGWYRQAPGKERELVPSISYSVSRTYYADSVKGRFTISRDNAKNTVYFQMNSLTPEDTAVYYCAVRQVNWFGIGYEDDYCGQGTQVTVSS | low polyreactivity
40 | QDQLVESGVGLDQAGVSLRLSCAASGRTFKGNAMGWYSQATGKESELVAVITGSGGSTYYADSVKGRFTISRDNAKNTVYLQMTSLKPEDTAVYYCNKTLQRRSWYDYWGQGTQVTVSS | low polyreactivity
41 | QDQLVESGVGLVQAGGSLRLSCAASGRTYFSHTMGWYRQAPGKERQLVAAITRSGGTTYYADSVKGRFTISRDNAKNTVYLQMNSLKPEDTAVYYCAARTSYAFYYPRDYWGQGTQVTVSS | high polyreactivity
42 | QDQLVESGVGLVQAGGSLRLSCAASGSTFYYYAMGWYRQAPGKERELVAAITSDGSTNYADSVKGRFTISRDNAKNTVYLQMNSLKTEDTAVYYCAKTYYWGYDWGQGTQVTVSS | low polyreactivity
43 | QDQLVESRGGLVQAGGSLGLSCAASGSIFSYYAMGWYRQAPGKERELVAAITSGGATTYYADSVKGRFTISRDYAKNTVYLQMNSLKPEDTAVYYCAAGYYVYYRWWELDYWGQGTQVTVSS | low polyreactivity
